{"source": "patent US5716804", "about": "“Mammalian interleukin-10 (IL-10) super-activating receptors; and variants” (Schering Corporation, dated 1998)", "molecules": {"B1": {"name": "wild-type mouse IL-10 receptor (mIL-10R) (receptor)", "chain": "LEFIAYGTELPSPSYVWFEARFFQHILHWKPIPNQSESTYYEVALKQYGNSTWNDIHICRKAQALSCDLTTFTLDLYHRSYGYRARVRAVDNSQYSNWTTTETRFTVDEVILTVDSVTLKAMDGIIYGTIHPPRPTITPAGDEYEQVFKDLRVYKISIRKFSELKNATKRVKQETFTLTVPIGVRKFCVKVLPRLESRINKAEWSEEQCLLITTEQYFTVTNLSILVISMLLFCGILVCLVLQWYIRHPGKLPTVLVFKKPHDFFPANPLCPETPDAIHIVDLEVFPKVSLELRDSVLHGSTDSGFGSGKPSLQTEESQFLLPGSHPQIQGTLGKEESPGLQATCGDNTDSGICLQEPGLHSSMGPAWKQQLGYTHQDQDDSDVNLVQNSPGQPKYTQDASALGHVCLLEPKAPEEKDQVMVTFQGYQKQTRWKAEAAGPAECLDEEIPLTDAFDPELGVHLQDDLAWPPPALAAGYLKQESQGMASAPPGTPSRQWNQLTEEWSLLGVVSCEDLSIESWRFAHKLDPLDCGAAPGGLLDSLGSNLVTLPLISSLQVEE"}, "B2": {"name": "mIL-10R Δ282-414 (receptor)", "chain": "LEFIAYGTELPSPSYVWFEARFFQHILHWKPIPNQSESTYYEVALKQYGNSTWNDIHICRKAQALSCDLTTFTLDLYHRSYGYRARVRAVDNSQYSNWTTTETRFTVDEVILTVDSVTLKAMDGIIYGTIHPPRPTITPAGDEYEQVFKDLRVYKISIRKFSELKNATKRVKQETFTLTVPIGVRKFCVKVLPRLESRINKAEWSEEQCLLITTEQYFTVTNLSILVISMLLFCGILVCLVLQWYIRHPGKLPTVLVFKKPHDFFPANPLCPETPDAIHIVEEKDQVMVTFQGYQKQTRWKAEAAGPAECLDEEIPLTDAFDPELGVHLQDDLAWPPPALAAGYLKQESQGMASAPPGTPSRQWNQLTEEWSLLGVVSCEDLSIESWRFAHKLDPLDCGAAPGGLLDSLGSNLVTLPLISSLQVEE"}, "B3": {"name": "mIL-10R Δ483-559 (receptor)", "chain": "LEFIAYGTELPSPSYVWFEARFFQHILHWKPIPNQSESTYYEVALKQYGNSTWNDIHICRKAQALSCDLTTFTLDLYHRSYGYRARVRAVDNSQYSNWTTTETRFTVDEVILTVDSVTLKAMDGIIYGTIHPPRPTITPAGDEYEQVFKDLRVYKISIRKFSELKNATKRVKQETFTLTVPIGVRKFCVKVLPRLESRINKAEWSEEQCLLITTEQYFTVTNLSILVISMLLFCGILVCLVLQWYIRHPGKLPTVLVFKKPHDFFPANPLCPETPDAIHIVDLEVFPKVSLELRDSVLHGSTDSGFGSGKPSLQTEESQFLLPGSHPQIQGTLGKEESPGLQATCGDNTDSGICLQEPGLHSSMGPAWKQQLGYTHQDQDDSDVNLVQNSPGQPKYTQDASALGHVCLLEPKAPEEKDQVMVTFQGYQKQTRWKAEAAGPAECLDEEIPLTDAFDPELGVHLQDDLAWPPPALAAGYLKQES"}, "B4": {"name": "mIL-10R Δ282-389 (receptor)", "chain": "LEFIAYGTELPSPSYVWFEARFFQHILHWKPIPNQSESTYYEVALKQYGNSTWNDIHICRKAQALSCDLTTFTLDLYHRSYGYRARVRAVDNSQYSNWTTTETRFTVDEVILTVDSVTLKAMDGIIYGTIHPPRPTITPAGDEYEQVFKDLRVYKISIRKFSELKNATKRVKQETFTLTVPIGVRKFCVKVLPRLESRINKAEWSEEQCLLITTEQYFTVTNLSILVISMLLFCGILVCLVLQWYIRHPGKLPTVLVFKKPHDFFPANPLCPETPDAIHIVSPGQPKYTQDASALGHVCLLEPKAPEEKDQVMVTFQGYQKQTRWKAEAAGPAECLDEEIPLTDAFDPELGVHLQDDLAWPPPALAAGYLKQESQGMASAPPGTPSRQWNQLTEEWSLLGVVSCEDLSIESWRFAHKLDPLDCGAAPGGLLDSLGSNLVTLPLISSLQVEE"}, "B5": {"name": "mIL-10R Δ282-458 (receptor)", "chain": "LEFIAYGTELPSPSYVWFEARFFQHILHWKPIPNQSESTYYEVALKQYGNSTWNDIHICRKAQALSCDLTTFTLDLYHRSYGYRARVRAVDNSQYSNWTTTETRFTVDEVILTVDSVTLKAMDGIIYGTIHPPRPTITPAGDEYEQVFKDLRVYKISIRKFSELKNATKRVKQETFTLTVPIGVRKFCVKVLPRLESRINKAEWSEEQCLLITTEQYFTVTNLSILVISMLLFCGILVCLVLQWYIRHPGKLPTVLVFKKPHDFFPANPLCPETPDAIHIVGVHLQDDLAWPPPALAAGYLKQESQGMASAPPGTPSRQWNQLTEEWSLLGVVSCEDLSIESWRFAHKLDPLDCGAAPGGLLDSLGSNLVTLPLISSLQVEE"}}, "key": {"the mutant mIL-10R": {"target": "the mutant mIL-10R", "experiment": "binding of iodinated hIL-10 to Ba/F3 transfectants, Scatchard analysis"}, "mIL-10R Δ282-414 (mouse)": {"target": "mIL-10R Δ282-414 (mouse)", "settings": "scale: log greater proliferative response than wild-type mIL-10R"}, "mIL-10R Δ282-458 (mouse)": {"target": "mIL-10R Δ282-458 (mouse)", "settings": "scale: log greater proliferative response than wild-type mIL-10R"}, "mIL-10R Δ282-389 (mouse)": {"target": "mIL-10R Δ282-389 (mouse)", "settings": "scale: log greater proliferative response than wild-type mIL-10R"}, "[1]": {"target": "T1, ^125 I-hIL-10 (iodinated recombinant CHO-derived human IL-10) (human, UniProt P22301, iodinated (125I); labelled residue not stated)", "experiment": "Scatchard analysis of 125I-hIL-10 saturation binding to Ba/F3 transfectants", "description": "Approximately 5×10^6 cells for each cell line tested were pelleted by centrifugation at 200×g for 10 min, washed in PBS, and resuspended in 200 μl binding buffer (PBS, 10% fetal calf serum, 0.1% NaN_3) containing iodinated hIL-10 at a concentration of 100–500 pM. After incubation at 4° C. for two hours in a rotary mixer, the cells were centrifuged at 200×g for 10 min, resuspended in 100 μl binding buffer without labeled hIL-10, layered over 200 μl of a 1:1 mixture of dibutyl- and dioctyl-phthalate oils in elongated microcentrifuge tubes, centrifuged at 400×g for 5 min at 4° C., and quick frozen in liquid nitrogen. The cell pellets were then cut and counted in a Clinigamma 1272 counter (Pharmacia LKB). Non-specific binding was determined by performing the binding in the presence of 500 to 1000-fold molar excess unlabeled hIL-10. For saturation binding experiments, two-fold serial dilutions of approximately 600 pM solution of iodinated hIL-10 were used, with a parallel series done to determine non-specific binding. Scatchard analysis was performed on the data points obtained using the EBDA Program (Elsevier-Biosoft, Cambridge, U.K.). Antibody inhibition was done under the above binding conditions but with the addition of a 100-fold molar excess of each of the indicated monoclonal antibodies. Cytokine specificity was determined under similar conditions but with the addition of 500-fold molar excess of the cytokines indicated. Similar measurements can be made using the BIACORE apparatus (Pharmacia LKB) following manufacturer's recommendations."}, "[2]": {"target": "T1, ^125 I-hIL-10 (iodinated recombinant …)", "experiment": "binding of iodinated hIL-10 to Ba/F3 transfectants"}}, "note": "Values joined by “and” are separate entries in the source; they are usually repeats but may differ in a detail not shown here. Identical values can stand only once.", "data": [{"molecule": "^125 I-hIL-10 (iodinated recombinant CHO-derived human IL-10) (from UniProt P22301) (ligand)", "values": [{"measurement": "Kd", "setting": "the mutant mIL-10R", "result": "0.4 to 0.6", "unit": "nM"}]}, {"molecule": "IL-10 (ligand)", "values": [{"measurement": "proliferative response to IL-10 of Ba/F3 transfectants", "setting": "mIL-10R Δ282-414 (mouse)", "result": "1.5 and 2"}, {"measurement": "proliferative response to IL-10 of Ba/F3 transfectants", "setting": "mIL-10R Δ282-458 (mouse)", "result": "1.5 and 2"}, {"measurement": "proliferative response to IL-10 of Ba/F3 transfectants", "setting": "mIL-10R Δ282-389 (mouse)", "result": "1.5 and 2"}]}, {"molecule": "B1", "values": [{"measurement": "Kd", "setting": "[1]", "result": 0.28, "unit": "nM"}]}, {"molecule": "B2", "values": [{"measurement": "Kd", "setting": "[1]", "result": 0.67, "unit": "nM"}]}, {"molecule": "B3", "values": [{"measurement": "Kd", "setting": "[1]", "result": 0.54, "unit": "nM"}]}, {"molecule": "B4", "values": [{"measurement": "binding result", "setting": "[2]", "result": "binds"}]}, {"molecule": "B5", "values": [{"measurement": "binding result", "setting": "[2]", "result": "binds"}]}]}
